From publication PMC10033316, “Expression of GnT-III decreases chemoresistance via negatively regulating P-glycoprotein expression: Involvement of the TNFR2-NF-κB signaling pathway” (The Journal of Biological Chemistry, 2023)

Molecular target: the molecule itself
Assay: cross-linking; cells without TNFα stimulation, 1 mM BS3 for 30 min at room temperature on whole cells; RIPA lysate, nonreducing SDS-PAGE, anti-Flag blot

B1: TNF receptor 2 (TNFR2) with a 3x FLAG tag, overexpressed in K562/ADR cells (bisected N-glycans lacking) (receptor, human, UniProt P20333 23-461, looked up)
chain: LPAQVAFTPYAPEPGSTCRLREYYDQTAQMCCSKCSPGQHAKVFCTKTSDTVCDSCEDSTYTQLWNWVPECLSCGSRCSSDQVETQACTREQNRICTCRPGWYCALSKQEGCRLCAPLRKCRPGFGVARPGTETSDVVCKPCAPGTFSNTTSSTDICRPHQICNVVAIPGNASMDAVCTSTSPTRSMAPGAVHLPQPVSTRSQHTQPTPEPSTAPSTSFLLPMGPSPPAEGSTGDFALPVGLIVGVTALGLLIIGVVNCVIMTQVKKKPLCLQREAKVPHLPADKARGTQGPEQQHLLITAPSSSSSSLESSASALDRRAPTRNQPQAPGVEASGAGEARASTGSSDSSPGGHGTQVNVTCIVNVCSSSDHSSQCSSQASSTMGDTDSSPSESPKDEQVPFSKEECAFRSQLETPETLLGSTEEKPLPLGVPDAGMKPS
modifications: N-glycosylated; modification by bisected N-glycans on TNFR2 significantly suppressed in K562/ADR cells
notes: TNF receptor 2 (TNFR2), human, cDNA cloned from K562 cells; Same construct as m1; host K562/ADR cells have very low GnT-III; also called TNFR2-Flag; source: K562/ADR cells infected by virus with the CSIV-TRE-RfA-CMV-KT-TNFR2 plasmid, on the cell surface; not shown: 3x FLAG, C-terminal, kept
stoichiometry N: 3
